In US20260274985A1 (MYTHIC THERAPEUTICS, published 2026):
Changes are numbered by the printed parent chain.

B1: MYT13429 (antibody, V domains shown)
VH: QVQLQQSGSELKKPGASVKVSCKASGYTFTNYGMNWVKQAPGQGLKWMGWINTYTGEPTYTDDFKHRFAFSLDTSVSTAYLQISSLKADDTAVYFCARGGFGSSYWYFDVWGQGSLVTVSS
VL: DIQLTQSPSSLSASVGDRVSITCKASQDVHIAVAWYQQKPGKAPKLLIYSHSYRYTGVPDRFSGSGSGTDFTLTISSLQPEDFAVYYCQQHYHTPLTFGAGTKVEIK
notes: IgG; also called Sacituzumab HC-LC pairing variant
B2: MYT13433 (antibody, V domains shown)
VH: B1 VH with D62H, H66G
VL: B1 VL with H30S, Y53H
notes: as for B1
B3: MYT13424 (antibody, V domains shown)
VH: B1 VH with Y60H, H66G
VL: B1 VL
notes: as for B1
B4: MYT13368 (antibody, V domains shown)
VH: B1 VH with Y60H, H66G
VL: B1 VL with V33H, H51A, H93I
notes: as for B1
B5: MYT13160 (antibody, V domains shown)
VH: B1 VH with Y32H, H66G
VL: B1 VL with H51A, H93I
notes: as for B1
B6: MYT13426 (antibody, V domains shown)
VH: B1 VH with D63H, H66G
VL: B1 VL
notes: as for B1
B7: MYT13283 (antibody, V domains shown)
VH: QVQLQESGPGLVKPSETLSLTCTVSGGSISSYGVHWIRQPPGKGLEWIGVIWTSGVTDYNSALMGRVTISVDTSKNQFSLKLSSVTAADTAVYYCARDGDYHRYTMDYWGQGTLVTVSS
VL: DIVMTQSPDSLAVSLGERATINCRASKSVSTSGYSYMHWYQQKPGQPPKLLIYLASNLEHGVPDRFSGSGSGTDFTLTISSLQAEDVAVYYCQHSRELPYTFGQGTKLEIK
notes: Full-length IgG; also called h7E6SVG HC-LC pairing variant
B8: MYT13290 (antibody, V domains shown)
VH: B7 VH with H102D, M106H
VL: B7 VL with H60S, Q93H
notes: as for B7
B9: MYT11567 (antibody, V domains shown)
VH: B1 VH with G26H, H66G
VL: B1 VL with H30S, H51A, H93I
notes: Sacituzumab variant, His at HCV position 26 (H1 01)
B10: MYT11578 (antibody, V domains shown)
VH: B1 VH with I51H, H66G
VL: B1 VL with H30S, H51A, H93I
notes: Sacituzumab variant, His at HCV position 51 (H2 02)
B11: MYT11594 (antibody, V domains shown)
VH: B1 VH with H66G, A97H
VL: B1 VL with H30S, H51A, H93I
notes: Sacituzumab variant, His at HCV position 97 (H3 01)
B12: MYT11576 (antibody, V domains shown)
VH: B1 VH with N35H, H66G
VL: B1 VL with H30S, H51A, H93I
notes: Sacituzumab variant, His at HCV position 35 (H1 10)
B13: MYT11580 (antibody, V domains shown)
VH: B1 VH with T53H, H66G
VL: B1 VL with H30S, H51A, H93I
notes: Sacituzumab variant, His at HCV position 53 (H2 04)
B14: MYT11591 (antibody, V domains shown)
VH: B1 VH with F64H, H66G
VL: B1 VL with H30S, H51A, H93I
notes: Sacituzumab variant, His at HCV position 64 (H2 15)
B15: MYT11574 (antibody, V domains shown)
VH: B1 VH with G33H, H66G
VL: B1 VL with H30S, H51A, H93I
B16: MYT11588 (antibody, V domains shown)
VH: B1 VH with T61H, H66G
VL: B1 VL with H30S, H51A, H93I
notes: Sacituzumab variant, His at HCV position 61 (H2 12)
B17: MYT11570 (antibody, V domains shown)
VH: B1 VH with F29H, H66G
VL: B1 VL with H30S, H51A, H93I
notes: Sacituzumab variant, His at HCV position 29 (H1 04)
B18: MYT11571 (antibody, V domains shown)
VH: B1 VH with T30H, H66G
VL: B1 VL with H30S, H51A, H93I
notes: Sacituzumab variant, His at HCV position 30 (H1 05)
B19: MYT11575 (antibody, V domains shown)
VH: B1 VH with M34H, H66G
VL: B1 VL with H30S, H51A, H93I
notes: Sacituzumab variant, His at HCV position 34 (H1 09)
B20: MYT11573 (antibody, V domains shown)
VH: B1 VH with Y32H, H66G
VL: B1 VL with H30S, H51A, H93I
B21: MYT11586 (antibody, V domains shown)
VH: B1 VH with T59H, H66G
VL: B1 VL with H30S, H51A, H93I
notes: Sacituzumab variant, His at HCV position 59 (H2 10)
B22: MYT11579 (antibody, V domains shown)
VH: B1 VH with N52H, H66G
VL: B1 VL with H30S, H51A, H93I
notes: Sacituzumab variant, His at HCV position 52 (H2 03)
B23: MYT11585 (antibody, V domains shown)
VH: B1 VH with P58H, H66G
VL: B1 VL with H30S, H51A, H93I
notes: Sacituzumab variant, His at HCV position 58 (H2 09)
B24: MYT11589 (antibody, V domains shown)
VH: B1 VH with D62H, H66G
VL: B1 VL with H30S, H51A, H93I
B25: MYT11587 (antibody, V domains shown)
VH: B1 VH with Y60H, H66G
VL: B1 VL with H30S, H51A, H93I
B26: MYT11584 (antibody, V domains shown)
VH: B1 VH with E57H, H66G
VL: B1 VL with H30S, H51A, H93I
notes: Sacituzumab variant, His at HCV position 57 (H2 08)
B27: MYT11577 (antibody, V domains shown)
VH: B1 VH with W50H, H66G
VL: B1 VL with H30S, H51A, H93I
B28: MYT11568 (antibody, V domains shown)
VH: B1 VH with Y27H, H66G
VL: B1 VL with H30S, H51A, H93I
notes: Sacituzumab variant, His at HCV position 27 (H1 02)
B29: MYT11569 (antibody, V domains shown)
VH: B1 VH with T28H, H66G
VL: B1 VL with H30S, H51A, H93I
notes: Sacituzumab variant, His at HCV position 28 (H1 03)
B30: MYT11592 (antibody, V domains shown)
VH: B1 VH with K65H, H66G
VL: B1 VL with H30S, H51A, H93I
B31: MYT11572 (antibody, V domains shown)
VH: B1 VH with N31H, H66G
VL: B1 VL with H30S, H51A, H93I
notes: Sacituzumab variant, His at HCV position 31 (H1 06)
B32: MYT11581 (antibody, V domains shown)
VH: B1 VH with Y54H, H66G
VL: B1 VL with H30S, H51A, H93I
notes: Sacituzumab variant, His at HCV position 54 (H2 05)
B33: MYT11595 (antibody, V domains shown)
VH: B1 VH with H66G, R98H
VL: B1 VL with H30S, H51A, H93I
notes: Sacituzumab variant, His at HCV position 98 (H3 02)
B34: MYT11593 (antibody, V domains shown)
VH: B1 VH
VL: B1 VL with H30S, H51A, H93I
B35: MYT11582 (antibody, V domains shown)
VH: B1 VH with T55H, H66G
VL: B1 VL with H30S, H51A, H93I
notes: Sacituzumab variant, His at HCV position 55 (H2 06)
B36: MYT11590 (antibody, V domains shown)
VH: B1 VH with D63H, H66G
VL: B1 VL with H30S, H51A, H93I
notes: Sacituzumab variant, His at HCV position 63 (H2 14)

Target: T1, Human TROP2 Protein, His Tag (Acro Biosystems) (human, UniProt P09758 27-274)
T1 construct: not shown: His tag
T1 sequence (looked up): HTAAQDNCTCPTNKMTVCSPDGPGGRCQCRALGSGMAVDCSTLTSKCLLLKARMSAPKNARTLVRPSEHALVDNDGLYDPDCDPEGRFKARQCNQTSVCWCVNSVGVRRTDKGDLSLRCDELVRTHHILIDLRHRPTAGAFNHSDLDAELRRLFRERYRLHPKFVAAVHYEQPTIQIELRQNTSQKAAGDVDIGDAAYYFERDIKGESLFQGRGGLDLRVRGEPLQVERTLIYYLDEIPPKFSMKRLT
Assay: Octet (BLI); antigen and pH not given

**Q.** Which Kd does the source give for B1 here?
**A.** Its Kd is 2.85 nM.

**Q.** What about the “Octet response at 33.33 nM (Y-Axis) nm” value of the same binder?
**A.** The value was 0.122 nm.

**Q.** Which results are given for B2?
**A.** Kd: 4.36 nM; Octet response at 33.33 nM (Y-Axis) nm: 0.12 nm

**Q.** For B3, which Kd is on record?
**A.** Its Kd is 1.97 nM.

**Q.** And the “Octet response at 33.33 nM (Y-Axis) nm” value?
**A.** The value was 0.123 nm.

**Q.** Which Kd does the source give for B4 here?
**A.** The Kd was 1.03 nM.

**Q.** What about the “Octet response at 33.33 nM (Y-Axis) nm” value of the same binder?
**A.** Its value is 0.14 nm.

**Q.** B5 was tested. Which Kd did it give?
**A.** Its Kd is 0.009 nM.

**Q.** What about the “Octet response at 33.33 nM (Y-Axis) nm” value of the same binder?
**A.** The value was 0.077 nm.

**Q.** Which results are given for B6?
**A.** Kd: 1.51 nM; Octet response at 33.33 nM (Y-Axis) nm: 0.132 nm

**Q.** How did the Kd turn out when B7 was run?
**A.** Its Kd is 5.32 nM.

**Q.** What about the “Octet response at 33.33 nM (Y-Axis) nm” value of the same binder?
**A.** Its value is 0.108 nm.

**Q.** What does the source list for B8?
**A.** Kd: 7.45 nM; Octet response at 33.33 nM (Y-Axis) nm: 0.103 nm

Target: T2, Human TROP2 Protein, His Tag (Acro Biosystems) (human, UniProt P09758 27-274)
T2 construct: Bought protein; not shown: His tag
T2 sequence (looked up): T1 sequence (looked up)
Assay: BLI (Octet)
Experimental: After allowing for four days of protein expression, cell culture supernatants were collected, quantified by SDS-PAGE analysis (DNS), and the pH dependence of the variant was evaluated using biolayer interferometry (BLI) on an Octet RED 96e instrument. Briefly, cell culture supernatants were diluted based on qualitative expression level of the variant determined by visual examination of SDS-PAGE gels, 5 μL of cell culture supernatant was diluted into 195 μL of 1×PBST, pH 7.4 for high expressors, 25 μL of cell culture supernatant was diluted into 175 μL of 1×PBST, pH 7.4 for medium expressors and 100 μL of cell culture supernatant was diluted into 100 μL of 1×PBST, pH 7.4 for low expressors for loading onto the sensor tips. The resulting diluted supernatants were then captured on an anti-human Fc sensor (Forte Bio). A baseline was established using 1×PBST (50 mM Potassium Phosphate Buffer+150 mM NaCl+0.05% Tween 20) pH 7.4, and the sensor was associated with 50 nM of TROP2 (Human TROP2 Protein, His Tag, Acro Biosystems) in 1×PBST pH 7.4 for 120 sec to generate an association curve. In the dissociation phase, the antibody-antigen complex on the sensor was exposed to 1×PBST pH 7.4 or pH 5.4, for 300 sec. Association and dissociation phase curves were examined for the starting ABPC antibody (with no substitutions) and each corresponding antibody variant at pH 5.4 and pH 7.4 to inform on two criteria: a) enhanced dissociation (i.e., higher koff values) at pH 5.4 due to histidine or alanine substitution compared to the starting ABPC, (with no substitutions), and b) reduced dissociation at pH 7.4 (i.e., lower koff values) compared to pH 5.4 in the antibody variant itself and with the starting ABPC (with no substitutions). […] It was also noted that while some mutations obliterated TROP2 binding, others were tolerated with little or n change in TROP2 binding kinetics.

**Q.** Does B9 bind?
**A.** Result: binds

**Q.** Does B10 bind?
**A.** Result: binds

**Q.** Does B11 bind?
**A.** Result: binds

**Q.** Does B12 bind?
**A.** Result: binds

**Q.** Does B13 bind?
**A.** Result: binds

**Q.** Does B14 bind?
**A.** Result: binds

**Q.** Does B15 bind?
**A.** Result: binds

**Q.** Does B16 bind?
**A.** Result: binds

**Q.** Does B17 bind?
**A.** Result: binds

**Q.** Does B18 bind?
**A.** Result: binds

**Q.** Does B19 bind?
**A.** Result: binds

**Q.** Does B20 bind?
**A.** Result: binds

**Q.** Does B21 bind?
**A.** Result: binds

**Q.** Does B22 bind?
**A.** Result: binds

**Q.** Does B23 bind?
**A.** Result: binds

**Q.** Does B24 bind?
**A.** Result: binds

**Q.** Does B25 bind?
**A.** Result: binds

**Q.** Does B26 bind?
**A.** Result: binds

**Q.** Does B27 bind?
**A.** Result: binds

**Q.** Does B28 bind?
**A.** Result: binds

**Q.** Does B29 bind?
**A.** Result: binds

**Q.** Does B30 bind?
**A.** Result: binds

**Q.** Does B31 bind?
**A.** Result: binds

**Q.** Does B32 bind?
**A.** Result: binds

**Q.** Does B33 bind?
**A.** Result: binds

**Q.** Does B34 bind?
**A.** Result: binds

**Q.** Does B35 bind?
**A.** Result: binds

**Q.** Does B36 bind?
**A.** Result: binds
